Assay in all cases: filter binding; 5 mM Mg2+; 25 mM Tris-HCl pH 8, 50 mM NaAc, 5 mM MgCl2, 2.5 mM beta-mercaptoethanol; protein preincubated 10 min 65 C, binding 15 min 30 C; 0.5 nM substrate (Methods); Resu
One data set addresses T1, Tbar-aLhr2 WT (Thermococcus barophilus, UniProt F0LJX3 1-863).
T1 sequence: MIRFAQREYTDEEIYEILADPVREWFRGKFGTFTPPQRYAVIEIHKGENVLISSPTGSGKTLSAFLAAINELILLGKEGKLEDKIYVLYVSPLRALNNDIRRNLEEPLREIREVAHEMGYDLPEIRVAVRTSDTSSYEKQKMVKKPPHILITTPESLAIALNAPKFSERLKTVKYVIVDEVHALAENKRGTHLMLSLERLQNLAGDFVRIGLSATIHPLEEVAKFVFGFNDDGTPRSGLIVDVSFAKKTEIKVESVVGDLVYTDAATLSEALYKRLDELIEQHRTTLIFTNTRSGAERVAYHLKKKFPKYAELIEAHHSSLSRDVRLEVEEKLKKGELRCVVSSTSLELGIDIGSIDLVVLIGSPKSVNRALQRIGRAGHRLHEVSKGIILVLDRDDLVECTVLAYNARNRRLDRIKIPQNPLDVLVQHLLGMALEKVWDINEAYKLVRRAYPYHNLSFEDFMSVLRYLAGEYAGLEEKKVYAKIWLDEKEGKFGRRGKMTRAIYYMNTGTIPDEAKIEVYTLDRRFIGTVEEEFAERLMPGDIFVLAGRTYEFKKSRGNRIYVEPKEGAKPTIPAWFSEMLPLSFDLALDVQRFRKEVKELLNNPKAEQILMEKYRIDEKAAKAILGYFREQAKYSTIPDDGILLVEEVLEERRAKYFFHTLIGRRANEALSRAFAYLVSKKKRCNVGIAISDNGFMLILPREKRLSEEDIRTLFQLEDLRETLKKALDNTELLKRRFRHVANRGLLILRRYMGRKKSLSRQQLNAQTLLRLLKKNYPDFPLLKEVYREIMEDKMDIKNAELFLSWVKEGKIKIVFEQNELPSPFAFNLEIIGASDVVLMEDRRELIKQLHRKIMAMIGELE
Conditions: protein: recombinant, tags: untagged, chain copies: 4.

The target of another data set is T2, Tbar-aLhr2-ΔDom4 (Thermococcus barophilus, UniProt F0LJX3 1-513).
T2 sequence: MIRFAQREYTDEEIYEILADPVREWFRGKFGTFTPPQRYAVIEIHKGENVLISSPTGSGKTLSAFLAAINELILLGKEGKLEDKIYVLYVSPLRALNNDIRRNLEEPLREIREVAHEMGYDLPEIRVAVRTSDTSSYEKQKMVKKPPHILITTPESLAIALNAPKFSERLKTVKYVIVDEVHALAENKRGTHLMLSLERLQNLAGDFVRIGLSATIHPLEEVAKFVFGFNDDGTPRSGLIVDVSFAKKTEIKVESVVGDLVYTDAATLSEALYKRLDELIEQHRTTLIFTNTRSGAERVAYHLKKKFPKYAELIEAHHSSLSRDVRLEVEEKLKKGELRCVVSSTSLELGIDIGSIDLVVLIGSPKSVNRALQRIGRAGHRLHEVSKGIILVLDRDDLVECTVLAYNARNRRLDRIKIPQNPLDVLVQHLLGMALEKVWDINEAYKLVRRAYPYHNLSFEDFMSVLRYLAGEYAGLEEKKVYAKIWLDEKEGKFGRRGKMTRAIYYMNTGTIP
The following applies: protein: recombinant; tags: untagged; label: 5'-32P; single strand.

In a further data set the target is T3, Tbar-aLhr2-Dom4 (Thermococcus barophilus, UniProt F0LJX3 514-863).
T3 sequence: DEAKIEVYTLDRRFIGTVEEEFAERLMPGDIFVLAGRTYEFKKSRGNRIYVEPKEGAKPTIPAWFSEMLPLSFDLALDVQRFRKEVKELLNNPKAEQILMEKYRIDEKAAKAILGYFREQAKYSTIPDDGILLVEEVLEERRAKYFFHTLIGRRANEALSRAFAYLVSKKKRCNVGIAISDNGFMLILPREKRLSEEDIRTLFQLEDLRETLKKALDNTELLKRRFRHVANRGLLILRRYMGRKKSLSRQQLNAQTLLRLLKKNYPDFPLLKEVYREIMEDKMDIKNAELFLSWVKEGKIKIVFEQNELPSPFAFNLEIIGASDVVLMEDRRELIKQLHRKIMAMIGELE
Conditions: protein: recombinant; tags: untagged; label: 5'-32P; single strand.

A further data set addresses T4, Paby-Hel308 (Pyrococcus abyssi, UniProt Q9V0A9 1-715).
T4 sequence: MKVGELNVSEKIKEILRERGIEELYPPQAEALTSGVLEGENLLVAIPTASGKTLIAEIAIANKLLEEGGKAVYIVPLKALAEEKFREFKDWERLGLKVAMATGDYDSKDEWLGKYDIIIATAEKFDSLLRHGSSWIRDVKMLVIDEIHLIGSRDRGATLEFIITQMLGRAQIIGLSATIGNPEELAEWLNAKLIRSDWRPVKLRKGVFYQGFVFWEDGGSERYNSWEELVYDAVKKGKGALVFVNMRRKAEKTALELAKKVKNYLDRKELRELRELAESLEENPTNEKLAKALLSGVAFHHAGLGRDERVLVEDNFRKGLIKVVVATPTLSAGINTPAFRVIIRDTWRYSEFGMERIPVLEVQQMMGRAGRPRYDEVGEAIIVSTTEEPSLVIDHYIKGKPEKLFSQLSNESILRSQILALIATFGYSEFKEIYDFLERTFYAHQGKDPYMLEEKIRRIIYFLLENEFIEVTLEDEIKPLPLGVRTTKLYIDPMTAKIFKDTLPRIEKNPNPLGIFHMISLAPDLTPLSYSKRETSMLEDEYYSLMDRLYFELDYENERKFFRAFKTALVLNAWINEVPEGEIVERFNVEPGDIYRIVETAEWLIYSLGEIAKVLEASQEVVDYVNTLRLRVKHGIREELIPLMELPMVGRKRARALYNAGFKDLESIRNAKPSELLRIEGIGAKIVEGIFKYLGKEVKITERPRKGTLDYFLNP
Conditions: protein: recombinant, tags: untagged.

Setting [1] is: label: 5'-32P on DNA31, 3' overhang 28 nt.

Here are results for six molecules from paper PMC8301817, “Phylogenetic Diversity of Lhr Proteins and Biochemical Activities of the Thermococcales aLhr2 DNA/RNA Helicase”.

One may read the Kd as the constant that tells how readily two partners part at equilibrium. On to AUCGAUAGUCUCUAGACAGCAUGUCCUAGCAAGCCAGAAUUCGGCAGCGU (ssRNA) [RNA50], for which the dissociation constant Kd in the data set with Tbar-aLhr2 WT (label: 5'-32P, single strand) worked out at 41 ± 1 nM; with Tbar-aLhr2-ΔDom4, 69 ± 1 nM; with Tbar-aLhr2-Dom4, 161 ± 5 nM; with Paby-Hel308 (label: 5'-32P, single strand) it was 38 ± 1 nM.

B1: 3'RNA50:RNA26 (dsRNA)
RNA 1: AUCGAUAGUCUCUAGACAGCAUGUCCUAGCAAGCCAGAAUUCGGCAGCGU
RNA 2: GGACAUGCUGUCUAGAGACUAUCGAU
As for B1, the dissociation constant Kd with Tbar-aLhr2 WT (label: 5'-32P on RNA26, 3' overhang 24 nt) came out at 39 ± 2 nM.

With ATCGATAGTCTCTAGACAGCATGTCCTAGCAAGCCAGAATTCGGCAGCGT (ssDNA) [DNA50], the Kd turned out to be 39 ± 1 nM in the data set with Tbar-aLhr2 WT (label: 5'-32P, single strand); 54 ± 1 nM with Tbar-aLhr2-ΔDom4; 162 ± 5 nM with Tbar-aLhr2-Dom4; 32 ± 2 nM in the data set with Paby-Hel308 (label: 5'-32P, single strand).

GGACATGCTGTCTAGAGACTATCGAT (ssDNA) [DNA26]: the Kd with Tbar-aLhr2 WT (label: 5'-32P, single strand) was 58 ± 2 nM; in the data set with Tbar-aLhr2-ΔDom4, 211 ± 9 nM; with Tbar-aLhr2-Dom4, 277 ± 16 nM.

As for ACGCUGCCGAAUUCUGGCUUGCUAGG (ssRNA) [RNA26], the Kd with Tbar-aLhr2 WT (label: 5'-32P, single strand) came out at 80 ± 2 nM; in the data set with Tbar-aLhr2-ΔDom4 it was 150 ± 1 nM; with Tbar-aLhr2-Dom4 it was 241 ± 17 nM.

B2: 3'DNA59:DNA31 (dsDNA)
DNA 1: GACGCTGCCGAATTCTACCAGTGCCTTGCTAGGACATCTTTGCCCACCTGCAGGTTCAC
DNA 2: TAGCAAGGCACTGGTAGAATTCGGCAGCGTC
In the case of B2, the Kd in the data set with Tbar-aLhr2 WT (setting [1]) came out at 41 ± 2 nM; in the data set with Paby-Hel308 (setting [1]), 23 ± 1 nM.
